The values below come from publication PMC3232451 (Nature structural & molecular biology, 2011).

Data set [1] addresses TBL1 wild type (gel filtration and HSQC; limits not stated) (human). Briefly: SEC.
For data set [2] the target is unchanged. Kind of data set: NMR HSQC spectra.
Data set [3] addresses TBL1 F26A (human). Kind of data set: SEC.
Data set [4] has as its target TBL1 F26A (human). Kind of data set: NMR HSQC spectra.
For data set [5], the target named is T1, SMRT(167-207), GST removed (human, UniProt Q9Y618 167-207).
T1 chain (looked up): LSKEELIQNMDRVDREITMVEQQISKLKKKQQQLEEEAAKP
Kind of data set: NMR structure.

A further data set has as its target T2, His6-TBL1(1-90) (human, UniProt O60907-2 1-90).
T2 sequence (looked up): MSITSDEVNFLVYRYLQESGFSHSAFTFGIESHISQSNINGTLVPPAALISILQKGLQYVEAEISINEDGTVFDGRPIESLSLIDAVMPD
Kind of data set: fluorescence polarisation.

The data set “crystal structure” deals with the molecule itself. Briefly: crystal structure.

Where no end group is shown, it is not given here.

On to “TBL1 wild type (gel filtration and HSQC; limits not stated) (domain or fragment)”, for which the stoichiometry N in data set [1] and in data set [2] was 4 each time.
TBL1 F26A (domain or fragment): the stoichiometry N with TBL1 F26A (human) [3] and in the data set with TBL1 F26A (human) [4] was 2 throughout.

B1: GPS2(53-90) (domain or fragment, human, UniProt Q13227 53-90, looked up)
chain: KKEMEERMSLEETKEQILKLEEKLLALQEEKHQLFLQL
As to B1, the binding result in data set [5] is “binds”.

B2: BODIPY labeled GPS2(1-52) (peptide, UniProt Q13227 1-52, looked up)
chain: MPALLERPKLSNAMARALHRHIMMERERKRQEEEEVDKMMEQKMKEEQERRK
modifications: also: BODIPY label, position not given here
In the data set with His6-TBL1(1-90), B2 yielded a Kd of 5.1 µM.

B3: BODIPY labeled SMRT(227-260) (peptide, UniProt Q9Y618 227-260, looked up)
chain: VQIIYDENRKKAEAAHRILEGLGPQVELPLYNQP
modifications: also: BODIPY label, position not given here
Take B3: binding with His6-TBL1(1-90) was characterised by a dissociation constant (Kd) of 14.7 µM.

B4: His6-TBL1(1-71) (domain or fragment, human, UniProt O60907-2 1-71, looked up)
chain: MSITSDEVNFLVYRYLQESGFSHSAFTFGIESHISQSNINGTLVPPAALISILQKGLQYVEAEISINEDGT
B4: the “stoichiometry N” value in the data set “crystal structure” turned out to be 4.
